Assay results as given in patent publication US9969998B2, “Compositions of adenosine deaminase-2 (ADA2), variants thereof and methods of using same” (Halozyme, Inc., priority 2014, dated 2018).

Tests used:
[1] = Kinetic assessment of adenosine deaminase activity (ammonia assay, Michaelis-Menten); assay type: biochemical
Procedure: Adenosine deaminase activity was determined by the measurement of ammonia released from adenosine when broken down to inosine. Ammonia was measured using a commercially available Ammonia Assay kit (Cat. No. AA0100, Sigma-Aldrich, St. Louis, Mo.). The kit contains dry reagents containing α-ketoglutaric acid and NADPH, which were reconstituted with 5 mL water prior to use in the assay. Ammonia reacts with α-ketogluaric acid (KGA) and reduced nicotinamide adenine dinucleotide phosphate (NADPH) in the presence of L-glutamate dehydrogenase (GDH).
Kinetics parameters of rHuADA2 WT and variants were compared using this assay at different adenosine concentrations at pH 7.6 and 6.5. Adenosine concentrations ranging from 20 μM to 20 mM were used. Sub-molar concentration of adenosine stock was prepared in 1N NaOH.
For the enzymatic assays at pH 7.6, adenosine was serially diluted with 100 mM sodium acetate (NaOAc), pH 4.9. A 2× reaction mixture was prepared, containing reconstituted ammonia assay reagent (containing about 4 mM α-ketoglutarate and about 300 μM NADPH), WT rHuADA2 or variants at 1 μg/mL (17 nM) and glutamate dehydrogenase (GDH, 1:50 dilution). 85 μL of adenosine was added to 85 μL 2× mixture in duplicate in a UV-transparent half-area plate. The change in absorbance (ΔA) at 340 nm over time at room temperature was monitored.
For the enzymatic assay at pH 6.5, adenosine was serially diluted with 200 mM piperazine-N,N′-bis(2-ethanesulfonic acid) (PIPES), pH 6.5. A 2× reaction mixture in 200 mM PIPES, pH 6.5 was prepared, containing 4 mM α-ketoglutarate, 300 μM NADPH, 1 μg/mL (17 nM) rHuADA2 or variants and 50 U/mL GDH (Cat No. G2626, Sigma-Aldrich). The enzymatic reaction was initiated by adding equal volume of adenosine to the 2× mixture in a UV-transparent half-area plate as described above, and the change in absorbance (AA) at 340 nm over time at room temperature was monitored.
Adenosine deaminase activity in mU/mL (μM/min equivalent) was calculated using the following formula: 1 mU/mL=−(−ΔA/min×Tv)/(Sv×ϵ×1) • where Tv=total volume (170 μL), Sv=sample volume (85 μL), ϵ=6.22×10^−3 μM^−1 cm^−1, 1=1 cm.
The activity data were fitted with non-linear regression of Michaelis-Menten equation using Graphpad Prism software to obtain Km and Vmax. Other kinetics parameters such as kcat and kcat/Km were also determined.

[2] = Adenosine deaminase (ADA) enzymatic activity assay kit; assay type: biochemical; settings: purified protein at 5 μg/mL

Molecule | Km ([1]; pH 7.6, [E] = 8.5 nM) | Vmax ([1]; pH 7.6, [E] = 8.5 nM) | kcat ([1]; pH 7.6, [E] = 8.5 nM) | also measured
K374D/V102-Q147del→(GGGGS)3 (protein, (GGGGS)3 linker replaces deleted region; human ADA2 K371D/V99-Q144del->(GGGGS)3, mature numbering) IDETRAHLLLKEKMMRLGGRLVLNTKEELANERLMTLKIAEMKEAMRTLIFPPSMHFFQAKHLIERSQVFNILRMMPKGAALHLHDIGIVTMDWLVRNGGGGSGGGGSGGGGSNVTEFDDSLLRNFTLVTQHPEVIYTNQNVVWSKFETIFFTISGLIHYAPVFRDYVFRSMQEFYEDNVLYMEIRARLLPVYELSGEHHDEEWSVKTYQEVAQKFVETHPEFIGIKIIYSDHRSKDVAVIAESIRMAMGLRIKFPTVVAGFDLVGHEDTGHSLHDYKEALMIPAKDGVKLPYFFHAGETDWQGTSIDRNILDALMLNTTRIGHGFALSKHPAVRTYSWDKDIPIEVCPISNQVLKLVSDLRNHPVATLMATGHPMVISSDDPAMFGAKGLSYDFYEVFMGIGGMKADLRTLKQLAMNSIKYSTLLESEKNTFMEIWKKRWDKFIADVATK | 820 µM | 43.01 µM/min | 84.33 s⁻¹ | 
K374D/C108-T150del→(GGGGS)3 (protein, C108-T150 replaced by (GGGGS)3; human ADA2 K371D/C105-T147del->(GGGGS)3, mature numbering) IDETRAHLLLKEKMMRLGGRLVLNTKEELANERLMTLKIAEMKEAMRTLIFPPSMHFFQAKHLIERSQVFNILRMMPKGAALHLHDIGIVTMDWLVRNVTYRPHGGGGSGGGGSGGGGSEFDDSLLRNFTLVTQHPEVIYTNQNVVWSKFETIFFTISGLIHYAPVFRDYVFRSMQEFYEDNVLYMEIRARLLPVYELSGEHHDEEWSVKTYQEVAQKFVETHPEFIGIKIIYSDHRSKDVAVIAESIRMAMGLRIKFPTVVAGFDLVGHEDTGHSLHDYKEALMIPAKDGVKLPYFFHAGETDWQGTSIDRNILDALMLNTTRIGHGFALSKHPAVRTYSWDKDIPIEVCPISNQVLKLVSDLRNHPVATLMATGHPMVISSDDPAMFGAKGLSYDFYEVFMGIGGMKADLRTLKQLAMNSIKYSTLLESEKNTFMEIWKKRWDKFIADVATK | 770 µM | 38.12 µM/min | 74.75 s⁻¹ | 
K374D/V102-Q147del→(GGGGS)2 (protein, V102-Q147 replaced by (GGGGS)2; human ADA2 K371D/V99-Q144del->(GGGGS)2, mature numbering) IDETRAHLLLKEKMMRLGGRLVLNTKEELANERLMTLKIAEMKEAMRTLIFPPSMHFFQAKHLIERSQVFNILRMMPKGAALHLHDIGIVTMDWLVRNGGGGSGGGGSNVTEFDDSLLRNFTLVTQHPEVIYTNQNVVWSKFETIFFTISGLIHYAPVFRDYVFRSMQEFYEDNVLYMEIRARLLPVYELSGEHHDEEWSVKTYQEVAQKFVETHPEFIGIKIIYSDHRSKDVAVIAESIRMAMGLRIKFPTVVAGFDLVGHEDTGHSLHDYKEALMIPAKDGVKLPYFFHAGETDWQGTSIDRNILDALMLNTTRIGHGFALSKHPAVRTYSWDKDIPIEVCPISNQVLKLVSDLRNHPVATLMATGHPMVISSDDPAMFGAKGLSYDFYEVFMGIGGMKADLRTLKQLAMNSIKYSTLLESEKNTFMEIWKKRWDKFIADVATK | 870 µM | 44.52 µM/min | 87.29 s⁻¹ | 
K374D/V102-Q147del→(GGGGS)1 (protein, V102-Q147 replaced by (GGGGS)1; human ADA2 K371D/V99-Q144del->(GGGGS)1, mature numbering) IDETRAHLLLKEKMMRLGGRLVLNTKEELANERLMTLKIAEMKEAMRTLIFPPSMHFFQAKHLIERSQVFNILRMMPKGAALHLHDIGIVTMDWLVRNGGGGSNVTEFDDSLLRNFTLVTQHPEVIYTNQNVVWSKFETIFFTISGLIHYAPVFRDYVFRSMQEFYEDNVLYMEIRARLLPVYELSGEHHDEEWSVKTYQEVAQKFVETHPEFIGIKIIYSDHRSKDVAVIAESIRMAMGLRIKFPTVVAGFDLVGHEDTGHSLHDYKEALMIPAKDGVKLPYFFHAGETDWQGTSIDRNILDALMLNTTRIGHGFALSKHPAVRTYSWDKDIPIEVCPISNQVLKLVSDLRNHPVATLMATGHPMVISSDDPAMFGAKGLSYDFYEVFMGIGGMKADLRTLKQLAMNSIKYSTLLESEKNTFMEIWKKRWDKFIADVATK | 890 µM | 43.46 µM/min | 85.22 s⁻¹ | 
R222Q: ADA2 variant SEQ ID NO:39 (protein, human ADA2 R219Q, mature numbering) IDETRAHLLLKEKMMRLGGRLVLNTKEELANERLMTLKIAEMKEAMRTLIFPPSMHFFQAKHLIERSQVFNILRMMPKGAALHLHDIGIVTMDWLVRNVTYRPHCHICFTPRGIMQFRFAHPTPRPSEKCSKWILLEDYRKRVQNVTEFDDSLLRNFTLVTQHPEVIYTNQNVVWSKFETIFFTISGLIHYAPVFRDYVFRSMQEFYEDNVLYMEIRAQLLPVYELSGEHHDEEWSVKTYQEVAQKFVETHPEFIGIKIIYSDHRSKDVAVIAESIRMAMGLRIKFPTVVAGFDLVGHEDTGHSLHDYKEALMIPAKDGVKLPYFFHAGETDWQGTSIDRNILDALMLNTTRIGHGFALSKHPAVRTYSWKKDIPIEVCPISNQVLKLVSDLRNHPVATLMATGHPMVISSDDPAMFGAKGLSYDFYEVFMGIGGMKADLRTLKQLAMNSIKYSTLLESEKNTFMEIWKKRWDKFIADVATK | 1920 µM | 59.28 µM/min |  | Km ([1]; pH 6.5): 994 µM; Km ([1]; pH 6.5, [E] = 8.5 nM): 994 µM; Vmax ([1]; pH 6.5, [E] = 8.5 nM): 42.15 µM/min; kcat ([1]; pH 6.5, [E] = 8.5 nM, kcat=Vmax/0.0085/60): 82.65 s⁻¹; Km ([1]; pH 7.6): 1920 µM; kcat ([1]; pH 7.6, [E] = 8.5 nM, kcat=Vmax/0.0085/60): 116.24 s⁻¹; Adenosine deaminase activity mU/ml [2]: 132.9 mU/ml; Adenosine deaminase activity ΔA/min [2]: 57.8 ΔA/min; % of WT activity ([2]; compared to WT-ADA2): 170%
K374D/C108-T150del→(GGGGS)2 (protein, C108-T150 replaced by (GGGGS)2; human ADA2 K371D/C105-T147del->(GGGGS)2, mature numbering) IDETRAHLLLKEKMMRLGGRLVLNTKEELANERLMTLKIAEMKEAMRTLIFPPSMHFFQAKHLIERSQVFNILRMMPKGAALHLHDIGIVTMDWLVRNVTYRPHGGGGSGGGGSEFDDSLLRNFTLVTQHPEVIYTNQNVVWSKFETIFFTISGLIHYAPVFRDYVFRSMQEFYEDNVLYMEIRARLLPVYELSGEHHDEEWSVKTYQEVAQKFVETHPEFIGIKIIYSDHRSKDVAVIAESIRMAMGLRIKFPTVVAGFDLVGHEDTGHSLHDYKEALMIPAKDGVKLPYFFHAGETDWQGTSIDRNILDALMLNTTRIGHGFALSKHPAVRTYSWDKDIPIEVCPISNQVLKLVSDLRNHPVATLMATGHPMVISSDDPAMFGAKGLSYDFYEVFMGIGGMKADLRTLKQLAMNSIKYSTLLESEKNTFMEIWKKRWDKFIADVATK | 850 µM | 36.92 µM/min | 72.39 s⁻¹ | 
K374D/C108-T150del→(GGGGS)1 (protein, C108-T150 replaced by GGGGS linker; human ADA2 K371D/C105-T147del->(GGGGS)1, mature numbering) IDETRAHLLLKEKMMRLGGRLVLNTKEELANERLMTLKIAEMKEAMRTLIFPPSMHFFQAKHLIERSQVFNILRMMPKGAALHLHDIGIVTMDWLVRNVTYRPHGGGGSEFDDSLLRNFTLVTQHPEVIYTNQNVVWSKFETIFFTISGLIHYAPVFRDYVFRSMQEFYEDNVLYMEIRARLLPVYELSGEHHDEEWSVKTYQEVAQKFVETHPEFIGIKIIYSDHRSKDVAVIAESIRMAMGLRIKFPTVVAGFDLVGHEDTGHSLHDYKEALMIPAKDGVKLPYFFHAGETDWQGTSIDRNILDALMLNTTRIGHGFALSKHPAVRTYSWDKDIPIEVCPISNQVLKLVSDLRNHPVATLMATGHPMVISSDDPAMFGAKGLSYDFYEVFMGIGGMKADLRTLKQLAMNSIKYSTLLESEKNTFMEIWKKRWDKFIADVATK | 910 µM | 43.1 µM/min | 84.51 s⁻¹ | 
